Source: article PMC9482650, “Quantitative fragmentomics allow affinity mapping of interactomes” (Nature Communications, 2022)

T1: SNTG2, Q9NY99
T1 sequence (Q9NY99 68-166, limits assumed, looked up): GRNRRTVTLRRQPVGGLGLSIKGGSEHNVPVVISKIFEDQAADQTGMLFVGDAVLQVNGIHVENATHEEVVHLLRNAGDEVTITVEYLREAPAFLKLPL

T2: MPP2, Q14168
T2 sequence (Q14168 180-250, limits assumed, looked up): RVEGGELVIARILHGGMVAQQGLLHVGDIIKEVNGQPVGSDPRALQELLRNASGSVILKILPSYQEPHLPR

T3: MPDZ_5, O75970
T3 sequence (O75970 695-796, limits assumed, looked up): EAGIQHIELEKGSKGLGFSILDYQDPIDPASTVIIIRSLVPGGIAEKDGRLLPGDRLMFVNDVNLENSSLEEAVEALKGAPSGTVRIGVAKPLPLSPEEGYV

T4: NHERF3_4, Q5T2W1
T4 sequence (Q5T2W1 373-468, limits assumed, looked up): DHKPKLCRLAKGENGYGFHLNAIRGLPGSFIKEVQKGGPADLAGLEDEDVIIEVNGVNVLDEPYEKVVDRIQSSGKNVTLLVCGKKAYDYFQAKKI

T5: CARD11, Q9BXL7
T5 sequence (Q9BXL7 662-765, limits assumed, looked up): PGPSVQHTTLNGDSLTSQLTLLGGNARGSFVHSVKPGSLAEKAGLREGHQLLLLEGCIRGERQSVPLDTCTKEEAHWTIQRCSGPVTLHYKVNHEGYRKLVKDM

T6: SIPA1L2, Q9P2F8
T6 sequence (Q9P2F8 945-1036, limits assumed, looked up): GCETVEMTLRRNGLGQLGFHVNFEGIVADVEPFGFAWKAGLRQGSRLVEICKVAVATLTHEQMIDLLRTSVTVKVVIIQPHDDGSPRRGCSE

T7: FRMPD1, Q5SYB0
T7 sequence (Q5SYB0 52-145, limits assumed, looked up): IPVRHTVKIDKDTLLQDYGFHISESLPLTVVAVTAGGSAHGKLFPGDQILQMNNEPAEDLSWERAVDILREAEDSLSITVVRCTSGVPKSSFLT

T8: PTPN13_1, Q12923
T8 sequence (Q12923 1088-1188, limits assumed, looked up): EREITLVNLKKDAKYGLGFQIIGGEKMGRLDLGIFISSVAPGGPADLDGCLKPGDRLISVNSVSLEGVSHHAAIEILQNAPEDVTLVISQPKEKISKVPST

T9: HTRA4, P83105
T9 sequence (P83105 378-476, limits assumed, looked up): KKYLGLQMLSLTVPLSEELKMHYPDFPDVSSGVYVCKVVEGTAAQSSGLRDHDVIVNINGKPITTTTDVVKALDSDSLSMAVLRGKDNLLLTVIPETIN

T10: LRRC7, Q96NW7
T10 sequence (Q96NW7 1440-1537, limits assumed, looked up): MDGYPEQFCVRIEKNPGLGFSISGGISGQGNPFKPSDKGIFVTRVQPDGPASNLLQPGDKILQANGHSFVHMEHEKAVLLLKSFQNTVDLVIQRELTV

T11: SNTB1, Q13884
T11 sequence (Q13884 107-205, limits assumed, looked up): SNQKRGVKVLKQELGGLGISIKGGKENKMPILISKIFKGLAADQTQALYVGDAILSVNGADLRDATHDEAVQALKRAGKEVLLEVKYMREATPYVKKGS


How the values were obtained:
Assay in all cases: holdup assay
Design in all cases: key: below the threshold = too weak to quantify, mostly under pKd 3.1 to 4
Conditions in all cases: plain residues with an end cap or a label only (N-terminal biotin on a linker: ado-ado)
Inadl_1, Q8NI35 = target: Inadl_1, Q8NI35
DLG4_3, P78352 = target: DLG4_3, P78352
HTRA1, Q92743 = target: HTRA1, Q92743
DLG4_2, P78352 = target: DLG4_2, P78352
NHERF2_2, Q15599 = target: NHERF2_2, Q15599
NHERF4_1, Q86UT5-2 = target: NHERF4_1, Q86UT5-2
SNTG2, Q9NY99 = target: T1, SNTG2, Q9NY99
MPP2, Q14168 = target: T2, MPP2, Q14168
MPDZ_5, O75970 = target: T3, MPDZ_5, O75970
NHERF3_4, Q5T2W1 = target: T4, NHERF3_4, Q5T2W1
Inadl_5, Q8NI35 = target: Inadl_5, Q8NI35
CARD11, Q9BXL7 = target: T5, CARD11, Q9BXL7
MAGI3_2, Q5TCQ9 = target: MAGI3_2, Q5TCQ9
PICK1, Q9NRD5 = target: PICK1, Q9NRD5
FRMPD2_2, Q68DX3 = target: FRMPD2_2, Q68DX3
LAP2, Q96RT1 = target: LAP2, Q96RT1
GRIP2_3, Q9C0E4 = target: GRIP2_3, Q9C0E4
SIPA1L2, Q9P2F8 = target: T6, SIPA1L2, Q9P2F8
FRMPD1, Q5SYB0 = target: T7, FRMPD1, Q5SYB0
TJP1_3, Q07157 = target: TJP1_3, Q07157
PTPN13_1, Q12923 = target: T8, PTPN13_1, Q12923
HTRA4, P83105 = target: T9, HTRA4, P83105
LRRC7, Q96NW7 = target: T10, LRRC7, Q96NW7
SNTB1, Q13884 = target: T11, SNTB1, Q13884
DLG1_2, Q12959 = target: DLG1_2, Q12959
GRASP, Q7Z6J2 = target: GRASP, Q7Z6J2
Chain of GRASP, Q7Z6J2 (Q7Z6J2 96-193): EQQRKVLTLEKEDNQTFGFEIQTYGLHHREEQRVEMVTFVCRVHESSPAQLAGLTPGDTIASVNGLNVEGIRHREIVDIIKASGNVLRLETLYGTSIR

Chain of LAP2, Q96RT1 (Q96RT1 other isoform, or with tags, fused parts or gaps): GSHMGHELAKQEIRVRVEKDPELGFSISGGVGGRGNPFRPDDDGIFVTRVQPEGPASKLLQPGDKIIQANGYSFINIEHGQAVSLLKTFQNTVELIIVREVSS
Chain of PICK1, Q9NRD5 (Q9NRD5 17-115): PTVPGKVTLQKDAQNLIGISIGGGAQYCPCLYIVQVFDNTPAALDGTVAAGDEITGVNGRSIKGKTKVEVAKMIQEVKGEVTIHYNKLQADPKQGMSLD
Chain of DLG1_2, Q12959 (Q12959 314-412): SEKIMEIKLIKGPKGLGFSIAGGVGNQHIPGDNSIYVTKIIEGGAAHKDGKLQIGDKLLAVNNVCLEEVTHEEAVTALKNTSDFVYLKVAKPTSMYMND
Chain of FRMPD2_2, Q68DX3 (Q68DX3 944-1038): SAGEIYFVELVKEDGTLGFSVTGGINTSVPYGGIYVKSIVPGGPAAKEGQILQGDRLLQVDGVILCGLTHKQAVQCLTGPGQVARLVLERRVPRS
Chain of DLG4_3, P78352 (P78352 306-403): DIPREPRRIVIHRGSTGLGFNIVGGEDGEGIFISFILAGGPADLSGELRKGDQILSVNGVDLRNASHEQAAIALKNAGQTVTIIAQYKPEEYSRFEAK
Chain of Inadl_1, Q8NI35 (Q8NI35 113-229): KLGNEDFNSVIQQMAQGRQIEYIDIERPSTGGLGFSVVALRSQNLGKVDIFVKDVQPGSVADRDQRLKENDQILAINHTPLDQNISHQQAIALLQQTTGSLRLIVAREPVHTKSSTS
Chain of HTRA1, Q92743 (Q92743 360-477): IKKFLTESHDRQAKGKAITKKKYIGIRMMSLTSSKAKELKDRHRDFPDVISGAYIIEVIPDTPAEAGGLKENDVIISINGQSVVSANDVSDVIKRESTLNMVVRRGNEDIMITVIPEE
Chain of NHERF4_1, Q86UT5-2 (Q86UT5 other isoform, or with tags, fused parts or gaps): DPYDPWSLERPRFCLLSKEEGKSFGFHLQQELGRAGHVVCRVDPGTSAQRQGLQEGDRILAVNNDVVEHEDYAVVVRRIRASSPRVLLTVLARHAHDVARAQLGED
Chain of MAGI3_2, Q5TCQ9 (Q5TCQ9 398-503): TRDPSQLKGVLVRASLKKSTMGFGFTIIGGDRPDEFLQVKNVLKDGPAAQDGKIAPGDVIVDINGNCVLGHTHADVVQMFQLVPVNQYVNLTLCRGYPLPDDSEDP
Chain of DLG4_2, P78352 (P78352 155-259): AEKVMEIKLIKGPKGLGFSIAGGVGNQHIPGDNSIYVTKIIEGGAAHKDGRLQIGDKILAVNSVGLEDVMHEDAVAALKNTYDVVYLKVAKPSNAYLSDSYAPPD
Chain of Inadl_5, Q8NI35 (Q8NI35 673-780): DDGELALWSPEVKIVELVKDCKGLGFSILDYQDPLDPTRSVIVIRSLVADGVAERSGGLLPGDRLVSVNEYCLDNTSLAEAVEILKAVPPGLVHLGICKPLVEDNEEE
Chain of TJP1_3, Q07157 (Q07157 416-512): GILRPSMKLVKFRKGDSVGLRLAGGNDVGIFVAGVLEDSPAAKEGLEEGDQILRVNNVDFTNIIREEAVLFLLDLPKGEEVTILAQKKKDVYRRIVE
Chain of GRIP2_3, Q9C0E4 (Q9C0E4 238-339): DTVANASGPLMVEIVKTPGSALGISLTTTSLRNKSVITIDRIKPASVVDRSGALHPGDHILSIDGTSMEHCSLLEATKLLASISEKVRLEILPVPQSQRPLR
Chain of NHERF2_2, Q15599 (Q15599 142-238): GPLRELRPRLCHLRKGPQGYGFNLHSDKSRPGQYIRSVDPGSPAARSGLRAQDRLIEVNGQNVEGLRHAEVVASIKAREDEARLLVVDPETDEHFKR

Binder	pKd (Inadl_1, Q8NI35)	pKd (DLG4_3, P78352)	pKd (HTRA1, Q92743)	pKd (DLG4_2, P78352)	pKd (NHERF2_2, Q15599)	pKd (NHERF4_1, Q86UT5-2)	pKd (SNTG2, Q9NY99)	pKd (MPP2, Q14168)	pKd (MPDZ_5, O75970)	pKd (NHERF3_4, Q5T2W1)	pKd (Inadl_5, Q8NI35)	pKd (CARD11, Q9BXL7)	pKd (MAGI3_2, Q5TCQ9)	pKd (PICK1, Q9NRD5)	pKd (FRMPD2_2, Q68DX3)	pKd (LAP2, Q96RT1)	pKd (GRIP2_3, Q9C0E4)	pKd (SIPA1L2, Q9P2F8)	pKd (FRMPD1, Q5SYB0)	pKd (TJP1_3, Q07157)	also measured
PASAKGPLGV [CLDN19, Q8N6F1]	below the threshold	below the threshold	below the threshold	below the threshold	below the threshold	3.49	below the threshold	below the threshold	below the threshold	below the threshold	below the threshold	below the threshold	below the threshold	below the threshold	below the threshold	below the threshold	below the threshold	below the threshold	below the threshold	below the threshold	pKd (PTPN13_1, Q12923): below the threshold; pKd (HTRA4, P83105): below the threshold; pKd (LRRC7, Q96NW7): below the threshold; pKd (SNTB1, Q13884): below the threshold; pKd (DLG1_2, Q12959): below the threshold; pKd (GRASP, Q7Z6J2): below the threshold
ETSLVKGIDI [DENND5A, Q6IQ26]	below the threshold	below the threshold	3.6	below the threshold	3.48	3.59	below the threshold	below the threshold	below the threshold	below the threshold	below the threshold	below the threshold	4.39	below the threshold	below the threshold	3.57	below the threshold	below the threshold	below the threshold	below the threshold	pKd (PTPN13_1, Q12923): below the threshold; pKd (HTRA4, P83105): 4.13; pKd (LRRC7, Q96NW7): below the threshold; pKd (SNTB1, Q13884): below the threshold; pKd (DLG1_2, Q12959): below the threshold; pKd (GRASP, Q7Z6J2): below the threshold
QSPPNIYYKV [EFNB3, Q15768]	3.99	below the threshold	4.49	3.54	3.56	below the threshold	3.7	below the threshold	below the threshold	3.54	below the threshold	below the threshold	below the threshold	below the threshold	below the threshold	below the threshold	below the threshold	below the threshold	below the threshold	below the threshold	pKd (PTPN13_1, Q12923): below the threshold; pKd (HTRA4, P83105): below the threshold; pKd (LRRC7, Q96NW7): below the threshold; pKd (SNTB1, Q13884): below the threshold; pKd (DLG1_2, Q12959): below the threshold; pKd (GRASP, Q7Z6J2): 3.57

Second part, led by results:

pKd (Inadl_1, Q8NI35)	pKd (DLG4_3, P78352)	pKd (HTRA1, Q92743)	pKd (DLG4_2, P78352)	pKd (NHERF2_2, Q15599)	pKd (NHERF4_1, Q86UT5-2)	pKd (SNTG2, Q9NY99)	pKd (MPP2, Q14168)	pKd (MPDZ_5, O75970)	pKd (NHERF3_4, Q5T2W1)	pKd (Inadl_5, Q8NI35)	pKd (CARD11, Q9BXL7)	pKd (MAGI3_2, Q5TCQ9)	pKd (PICK1, Q9NRD5)	pKd (FRMPD2_2, Q68DX3)	pKd (LAP2, Q96RT1)	pKd (GRIP2_3, Q9C0E4)	pKd (SIPA1L2, Q9P2F8)	pKd (FRMPD1, Q5SYB0)	pKd (TJP1_3, Q07157)	Binder	also measured
below the threshold	below the threshold	4.27	below the threshold	below the threshold	3.98	below the threshold	below the threshold	below the threshold	below the threshold	below the threshold	below the threshold	below the threshold	4.15	below the threshold	below the threshold	below the threshold	below the threshold	below the threshold	below the threshold	DSATVRTYSC [PPFIA1, Q13136]	pKd (PTPN13_1, Q12923): below the threshold; pKd (HTRA4, P83105): below the threshold; pKd (LRRC7, Q96NW7): below the threshold; pKd (SNTB1, Q13884): below the threshold; pKd (DLG1_2, Q12959): below the threshold; pKd (GRASP, Q7Z6J2): 4.31
below the threshold	below the threshold	below the threshold	3.87	3.78	below the threshold	below the threshold	below the threshold	below the threshold	below the threshold	below the threshold	below the threshold	below the threshold	4.07	3.48	below the threshold	below the threshold	below the threshold	below the threshold	below the threshold	PAPGQHTTQI [STK16, O75716]	pKd (PTPN13_1, Q12923): below the threshold; pKd (HTRA4, P83105): 3.8; pKd (LRRC7, Q96NW7): below the threshold; pKd (SNTB1, Q13884): 3.57; pKd (DLG1_2, Q12959): 3.73; pKd (GRASP, Q7Z6J2): 3.58
below the threshold	4.33	4.99	5.12	3.63	4.12	3.84	below the threshold	4.37	3.53	4.34	below the threshold	5.49	4.17	5.11	3.49	below the threshold	below the threshold	below the threshold	below the threshold	NASRTRITFV [MCM7, P33993]	pKd (PTPN13_1, Q12923): below the threshold; pKd (HTRA4, P83105): 4.59; pKd (LRRC7, Q96NW7): below the threshold; pKd (SNTB1, Q13884): 5.13; pKd (DLG1_2, Q12959): 5.28; pKd (GRASP, Q7Z6J2): 4.53
